Experimental data taken from PMC10509167, “Identification and characterization of endo-α-, exo-α-, and exo-β-D-arabinofuranosidases degrading lipoarabinomannan and arabinogalactan of mycobacteria” (Nature Communications, 2023).

Target: the molecule itself
Assay: crystal structure; ExoMA2 in complex with Tris (1.75 Å) and with β-D-Araf (1.35 Å); dimer in the asymmetric unit; sitting-drop vapor diffusion, 20 °C

B1: ExoMA2 (MIAR_33170), GH116 exo-β-D-arabinofuranosidase from Microbacterium arabinogalactanolyticum, recombinant (enzyme, UniProt A0AAJ6N6D6 1-867, looked up)
chain: MSKIKSRRARRIPHTAESVAFPLGGIGTGNVSLGARGELRDWEFENLPDKGRLNPRSFFAIHAAPQGGPSATRVLEARSSGRHDRDAGYGFDELAGLPRLDSAGLHGEYPVVDIDFTDATLPVTVSLHAFTPLVPLDADASGIPAAVLRYRVVNPGDAPVTVTVVGSMSHTAGRGAPGPDAPWGMRGTQSVRWRESDGIRGLDFDIDLDHDDPGYGTMSLTTTDSSTTVKPQWVTSYWPDGARLFWNDLADDGLLAPEARLTLEDKPRGLFAERDADPDAPALTEEQMLAKLPRVRTGSLGIVHTLAPGEERDFEFVLAWSFPNRRRGWHGHIIFDDALEDGAPDLRDELGPIVRNHYAVRWPDAWAAAAQLHRDLPALEGATDAFVEELYGGSLDPVLADAVGANIAALRSTTCFVLESPTPELGDGPVFAAWEGSFDHGGSCEGTCTHVWSYAQTAAWLFPGLERSARRAEYLLETDESGAQKFRGNRIFGAPRWFIGPAVDGQLGTFLRLHREWRFCGDDEFLRELWPAAARTLDYAAREWDHDGDGLLDGEMHNTYDIEFHGVEPLSNIIHLAALRAGVRMAGHLGDTARAQEWALRADHVAAAIEGVLWNGEYYRQVIDDVDAHRYQYGDGVLSDQLLGQFHAFLGGLGYLLPEAHVRSALDAIVQHNHRGDLRDHESTQRVYALNDEGGLLLASWPEGGRPALPFVYADEVWTGIEHQVAVSLLFAGRYDDALRIERTLRARYDGAHRSPWNEIECGNHYARSLASWGLLIGASGAQWDAGARTLSFDPVLPGDARFLFTTATGWGGVEIGDDVITLRLHGGALDLDELRLRGEVAGRGIHLDAGETRTLTLTLEHHHHHH
notes: ExoMA2, product of gene MIAR_33170 of Microbacterium arabinogalactanolyticum JCM 9171; primers are in Supplementary Data 3; source: E. coli BL21 (DE3), purified (IMAC, anion exchange chromatography, SEC)
  stoichiometry N: 2
